Targets include HLA-A*02:16; HLA-A*01:01; HLA-A*30:01; HLA-B*27:05; HLA-B*07:02; HLA-B*27:03; HLA-B*15:17; HLA-A*29:02; HLA-A*02:19; HLA-B*40:01; HLA-A*30:02; HLA-A*68:02; HLA-B*18:01; HLA-B*57:01; HLA-A*02:01; HLA-B*46:01; HLA-B*51:01; HLA-B*15:01; HLA-A*23:01; HLA-A*11:01; HLA-A*02:03; HLA-B*53:01; HLA-B*14:02; HLA-A*66:01.
Assay in all cases: IEDB peptide-MHC binding, purified MHC/competitive/fluorescence; filed as Kd, often an IC50 or EC50 that approximates it; ≥ and ≤ were set here for values at or beyond the usual limits of such assays
Holding throughout (conditions): source organism: Entamoeba histolytica HM-1:IMSS

The Kd is the concentration at which binding is half-saturated. As for EVIRATYPS, the dissociation constant Kd with HLA-A*02:16 was no less than 20 µM; with HLA-A*01:01, no less than 5 µM; with HLA-A*30:01 it was no less than 5 µM; with HLA-B*27:05 it was no less than 5 µM; in the experiment with HLA-B*07:02, no less than 5 µM; with HLA-B*27:03, no less than 20 µM. The Kd was no less than 20 µM with HLA-B*15:17; no less than 20 µM with HLA-A*29:02; no less than 20 µM with HLA-A*02:19; no less than 5 µM with HLA-B*40:01; no less than 5 µM in the experiment with HLA-A*30:02; 0.2 nM with HLA-A*68:02. The Kd with HLA-B*18:01, with HLA-B*57:01, in the experiment with HLA-A*02:01, with HLA-B*46:01, in the experiment with HLA-B*51:01 and with HLA-B*15:01 was no less than 20 µM each time. The equilibrium dissociation constant (Kd) with HLA-A*23:01 was no less than 20 µM; with HLA-A*11:01, no less than 5 µM; in the experiment with HLA-A*02:03, no less than 20 µM; with HLA-B*53:01 it was no less than 5 µM; in the experiment with HLA-B*14:02, no less than 5 µM; in the experiment with HLA-A*66:01, 24.4 nM.
